Test results reported in the RNAGym collection of RNA variant scans (doi:10.1073/pnas.2313332121).
Fewer inactive variants are shown than the library holds.

B1: TPR 5TU (parent)
chain: GGAUCUUCUCGAUCUAACAAAAAAGACAAAUCUGCCACAAAGCUUGAGAGCAUCUUCGGAUGCAGAGGCGGCAGCCUUCGGUGGCGCGAUAGCGCCAACGUUCUCAACUAUGACACGCAAAACGCGUGCUCCGUUGAAUGGAGUUUAUCAUG

Variants of: B1
Test: polymerase ribozyme fitness, log enrichment relative to wild type (log ratio); higher = more active; in vitro selection for triplet polymerase activity
Summary of the method: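 Mutant libraries for each subunit of a heterodimeric triplet polymerase ribozyme were made by PCR and then transcribed. Each library underwent one round of in vitro selection in triplicate: annealing with a biotinylated primer, the partner subunit and triplets, frozen incubation at −7 °C, gel excision of extended constructs, streptavidin-bead capture and RT-PCR. Input and output libraries were Illumina-sequenced, and only genotypes with ≥10 input reads and ≥1 read per output were kept. Fitness is the logarithm, base 2, of genotype enrichment over wild-type enrichment, computed from inverse-variance-weighted replicate averages.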

| Variant | polymerase ribozyme fitness (log ratio) |
| --- | --- |
| U13G A23C C32U G59U C85G C105G A106U C116G U134A | ≤ -4.2 |
| U13G C54U G84U | -2.19 |
| C14G A23U A52C G84A C118U | ≤ -4.2 |
| A12U C14G A20G A73G U77A G86U C96U G117U | ≤ -4.2 |
| C14A G141U | -0.0158 |
| C14A G141C | -1.87 |
| C14U A40U A41U A49U A73G G92A C125U | -4.11 |
| U13G U53A C85A C95U A98U G141C | ≤ -4.2 |
| C14G A16C C51U G94U C125U | -3.93 |
| A12U G46U G71U A142G | ≤ -4.2 |
| A12U G58C C95A | -1.44 |
| U13G C32A C93A U127G | ≤ -4.2 |
| U13G C32G A41C G141U | ≤ -4.2 |
| C14G U53G U77G A91U | ≤ -4.2 |
| A12U A16G A40C U55A G81A C118G C129A | ≤ -4.2 |
| C14A A17U A115G | -3.2 |
| U13C A21U A52C U55G G67U G80A C105U A150C | ≤ -4.2 |
| C14A C32U C85U A98U U111G U139G U151A | -4.14 |
| U13G A47U G50A C51U U55A G81C A137U C149A | ≤ -4.2 |
| A12U C14A C114G A119G | -3.37 |
| A12U A19C U82C C129G | -3.41 |

| Variant | polymerase ribozyme fitness (log ratio) |
| --- | --- |
| C14U A26G G92C | ≤ -4.2 |
| U13A A49C G50C C51U G62C C76A G81A C85U G112A G124U | ≤ -4.2 |
| U13G U82A C96U U130A | -3.83 |
| C14G U15C C76A C85G | -3.78 |
| C14G C35A G74U G86A A120U | ≤ -4.2 |
| C14U C35U G59C A60G C85U U104A A120U G128U A147G | ≤ -4.2 |
| A12U A49U A52C G67A C72A C85A G86C A119U | ≤ -4.2 |
| A12U C18A C51A U55G C87U G94A G143U | ≤ -4.2 |
| C14G U15C C85U A121C G126A | -0.0533 |
| C14G U56A A60C G88C C95U U139G G140A | ≤ -4.2 |
| C14A A28G A122U U134G U144G | ≤ -4.2 |
| C14U C36A A73G G83A G86A | ≤ -4.2 |
| C14U C18A U61C U139G | -4.16 |
| U13C C43A A73C G92U | ≤ -4.2 |
| C14U C51U A66G C87A C116U U148C | ≤ -4.2 |
| U13G C18G A22G C54A G100C C116G A120U A147C | ≤ -4.2 |
| U13C A20U G48C C96G | -2.62 |
| C14G A17C A22U U44A G83C C118A U134C | ≤ -4.2 |
| U13G A37U C76G G84U A107U C123U U139G | ≤ -4.2 |
| U13C U55A C85A C125U | -1.98 |
| U13G U15A C36A A40C U56A G58A A107U G124U C131A | ≤ -4.2 |

| Variant | polymerase ribozyme fitness (log ratio) |
| --- | --- |
| C14A U55G C63G C93U C118U | ≤ -4.2 |
| U13C C14G G88A | -4 |
| A12U C27G A41G C87U A91G G140U | ≤ -4.2 |
| U13C C18G C35G A40G C63A A91U C118U C132U A150U | ≤ -4.2 |
| U13C G25A A29C C36G C118A | -4.18 |
| U13G U56A A91G | -3.81 |
| U13G A60U G83C C108U | ≤ -4.2 |
| U13C C27A C43A G86U | ≤ -4.2 |
| A12U U13A A91G C93A U102A | ≤ -4.2 |
| C14A A20U A47U C76U C85A C95U A115U C131G | ≤ -4.2 |
| U13A C85U | -1.16 |
| C14G G34U A41C U77G G83U A115G U135G | ≤ -4.2 |
| A12U U55C A137C | -4.12 |
| A12U A23G C87U A150C | ≤ -4.2 |
| U13G A66C G80U G83C U101C U139C | ≤ -4.2 |
| C14G C54A C57A G62A U78A C85U G88A A115U | ≤ -4.2 |
| A12U A19U A37U U55A | -3.16 |
| U13C A52G G84A | -1.1 |
| C14A A40U C87A G136C | ≤ -4.2 |
| U13A G42C G48C C85A C99G A106G G133U G141C | ≤ -4.2 |
| U13G C27U C32G U56G C93U | ≤ -4.2 |

| Variant | polymerase ribozyme fitness (log ratio) |
| --- | --- |
| C14A A39U C85G G140A | ≤ -4.2 |
| C14G C69A C96U C118U | ≤ -4.2 |
| A12U A120C | -0.776 |
| C14G G100U | ≤ -4.2 |
| C14A C72U G81U C95U | -2.42 |
| C14G C96G | -2.81 |
| C14U A41U G46A A52U C63G C93U C105G | ≤ -4.2 |
| C14U A52G G62A C96G U104G | ≤ -4.2 |
| C14U A30G G81A C85G A97G G133A | ≤ -4.2 |
| U13A A37C C57A G126U | -1.66 |
| C14G A19U C116A | -2.21 |
| U13C A16G A19C U56A G136U U145G | -3.34 |
| C14A G25U U82G G94U | ≤ -4.2 |
| U13A A37G C93U | -3.74 |
| C14U C36G G71U A122U G124U | ≤ -4.2 |
| U13G G83C C125G G133A U145G | ≤ -4.2 |
| C14G A22G G94A C118G A150C | ≤ -4.2 |
| A12U A41C U55G A66G G88U G94U U134A G136C U151A | ≤ -4.2 |
| A12G U144A | 1.44 |
| U13G C18G C27U A40U A64U | ≤ -4.2 |
